According to IntAct's records for PubMed 23238393:

B1: Ubiquitin-like protein ATG12B (Arabidopsis thaliana (Mouse-ear cress)), Q9LVK3 (parent)
chain: MATESPNSVQKIVVHLRATGGAPILKQSKFKVSGSDKFANVIDFLRRQLHSDSLFVYVNSAFSPNPDESVIDLYNNFGFDGKLVVNYACSMAWG
partner: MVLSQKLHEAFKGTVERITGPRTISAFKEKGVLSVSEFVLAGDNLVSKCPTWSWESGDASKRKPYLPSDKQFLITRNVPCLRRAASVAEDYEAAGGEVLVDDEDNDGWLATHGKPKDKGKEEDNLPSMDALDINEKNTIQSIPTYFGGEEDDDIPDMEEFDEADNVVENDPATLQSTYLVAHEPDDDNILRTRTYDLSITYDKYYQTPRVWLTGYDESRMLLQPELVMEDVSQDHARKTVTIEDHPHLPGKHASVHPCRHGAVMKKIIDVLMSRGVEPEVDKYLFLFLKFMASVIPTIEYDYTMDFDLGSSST

Variants of: B1
Conditions: with atg3_arath ATG3, Q0WWQ1

| Variant | effect of a mutation on the interaction |
| --- | --- |
| MATESPNSVQKIVVHLRATGGAPILKQSKFKVSGSDKFANVIDFLRRQLHSDSLFVYVNSAASPNPDESVIDLYNNFGFDGKLVVNYACSMAWG [F62A] | decreasing interaction |

Variants of: B1
Conditions: with atg3_arath ATG3, Q0WWQ1
Remark: another data set of the same source

| Variant | effect of a mutation on the interaction |
| --- | --- |
| MATESPNSVQKIVVHLRATGGAPILKQSKFKVSGSDKFANVIDFLRRQLHSDSLFVAVNSAFSPNPDESVIDLYNNFGFDGKLVVNYACSMAWG [Y57A] | decreasing interaction |
